Experimental data as given in US20250250357A1.
Read-outs that look alike come from different tables or passages of the source.

How the values were obtained:
[1] = biological target: human MSLN on OVCAR3 tumor cells (human) (UniProt Q13421); experiment: FACS, OVCAR3 cells
[2] = biological target: human MSLN on OVCAR3 tumor cells (human) (UniProt Q13421); experiment: FACS, OVCAR3 cells; remark: listed apart in the source
[3] = biological target: human MSLN on OVCAR3 tumor cells (human) (UniProt Q13421); experiment: FACS, OVCAR3 cells; remark: listed apart in the source
[4] = biological target: human MSLN on OVCAR3 tumor cells (human) (UniProt Q13421); experiment: FACS, OVCAR3 cells; remark: listed apart in the source
[5] = biological target: human MSLN-R3 on HEK293T-hMSLN-R3 recombinant cells (human) (UniProt Q13421); experiment: FACS, HEK293T-hMSLN-R3 cells
human MSLN-R3 on HEK293T-hMSLN-R3 recombinant cells (human), sequence (Q13421 495-614): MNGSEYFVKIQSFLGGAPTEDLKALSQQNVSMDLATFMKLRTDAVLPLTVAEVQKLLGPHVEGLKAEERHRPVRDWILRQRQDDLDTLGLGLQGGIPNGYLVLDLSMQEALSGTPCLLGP

[6] = biological target: human MSLN-R3 on HEK293T-hMSLN-R3 recombinant cells (human) (UniProt Q13421); experiment: FACS, HEK293T-hMSLN-R3 cells; remark: listed apart in the source
[7] = biological target: human MSLN-R3 on HEK293T-hMSLN-R3 recombinant cells (human) (UniProt Q13421); experiment: FACS, HEK293T-hMSLN-R3 cells; remark: listed apart in the source
[8] = biological target: human MSLN-R3 on HEK293T-hMSLN-R3 recombinant cells (human) (UniProt Q13421); experiment: FACS, HEK293T-hMSLN-R3 cells; remark: listed apart in the source
[9] = biological target: monkey MSLN on HEK293T-monkey MSLN recombinant cells (monkey); experiment: FACS, HEK293T-monkey MSLN cells
[10] = biological target: monkey MSLN on HEK293T-monkey MSLN recombinant cells (monkey); experiment: FACS, HEK293T-monkey MSLN cells; remark: listed apart in the source
[11] = biological target: monkey MSLN on HEK293T-monkey MSLN recombinant cells (monkey); experiment: FACS, HEK293T-monkey MSLN cells; remark: listed apart in the source
[12] = biological target: monkey MSLN on HEK293T-monkey MSLN recombinant cells (monkey); experiment: FACS, HEK293T-monkey MSLN cells; remark: listed apart in the source
[13] = biological target: human MSLN-hFc protein (Acro, Cat. No. MSN-H5253) (human) (UniProt Q13421); experiment: ELISA on coated antigen, antibody 1 nM
human MSLN-hFc protein (Acro, Cat. No. MSN-H5253) (human), sequence (Q13421 other isoform, or with tags, fused parts or gaps limits assumed): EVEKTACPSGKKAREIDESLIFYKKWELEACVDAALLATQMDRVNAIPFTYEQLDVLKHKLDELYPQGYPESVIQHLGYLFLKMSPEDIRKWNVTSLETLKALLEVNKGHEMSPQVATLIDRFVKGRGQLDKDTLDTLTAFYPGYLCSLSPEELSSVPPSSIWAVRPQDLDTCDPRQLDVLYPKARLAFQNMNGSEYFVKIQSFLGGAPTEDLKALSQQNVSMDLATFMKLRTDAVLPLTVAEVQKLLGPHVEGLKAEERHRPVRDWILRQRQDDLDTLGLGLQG

[14] = biological target: human MSLN-hFc protein (Acro, Cat. No. MSN-H5253) (human) (UniProt Q13421); experiment: ELISA on coated antigen, antibody 1 nM; remark: listed apart in the source
[15] = biological target: human MSLN-hFc protein (Acro, Cat. No. MSN-H5253) (human) (UniProt Q13421); experiment: ELISA on coated antigen, antibody 10 nM
[16] = biological target: human MSLN-hFc protein (Acro, Cat. No. MSN-H5253) (human) (UniProt Q13421); experiment: ELISA on coated antigen, antibody 0.1 nM
[17] = biological target: human MSLN-hFc protein (Acro, Cat. No. MSN-H5253) (human) (UniProt Q13421); experiment: ELISA on coated antigen, antibody 100 nM
[18] = biological target: human MSLN-hFc protein (Acro, Cat. No. MSN-H5253) (human) (UniProt Q13421); experiment: ELISA on coated antigen, antibody 0.1 nM; remark: listed apart in the source
[19] = biological target: human MSLN-hFc protein (Acro, Cat. No. MSN-H5253) (human) (UniProt Q13421); experiment: ELISA on coated antigen, antibody 0.01 nM
[20] = biological target: human MSLN-hFc protein (Acro, Cat. No. MSN-H5253) (human) (UniProt Q13421); experiment: ELISA on coated antigen, antibody 0.001 nM
[21] = biological target: human MSLN-hFc protein (Acro, Cat. No. MSN-H5253) (human) (UniProt Q13421); experiment: ELISA on coated antigen, antibody 0.001 nM; remark: listed apart in the source
[22] = biological target: human MSLN-hFc protein (Acro, Cat. No. MSN-H5253) (human) (UniProt Q13421); experiment: ELISA on coated antigen, antibody 0.0001 nM
[23] = biological target: human MSLN-hFc protein (Acro, Cat. No. MSN-H5253) (human) (UniProt Q13421); experiment: ELISA, coated human MSLN-hFc, antibody 1 nM
[24] = biological target: human MSLN-hFc protein (Acro, Cat. No. MSN-H5253) (human) (UniProt Q13421); experiment: ELISA, coated human MSLN-hFc, antibody 1 nM; remark: listed apart in the source
[25] = biological target: human MSLN-hFc protein (Acro, Cat. No. MSN-H5253) (human) (UniProt Q13421); experiment: ELISA, coated human MSLN-hFc, antibody 10 nM
[26] = biological target: human MSLN-hFc protein (Acro, Cat. No. MSN-H5253) (human) (UniProt Q13421); experiment: ELISA, coated human MSLN-hFc, antibody 10 nM; remark: listed apart in the source
[27] = biological target: human MSLN-hFc protein (Acro, Cat. No. MSN-H5253) (human) (UniProt Q13421); experiment: ELISA, coated human MSLN-hFc, antibody 0.1 nM
[28] = biological target: human MSLN-hFc protein (Acro, Cat. No. MSN-H5253) (human) (UniProt Q13421); experiment: ELISA, coated human MSLN-hFc, antibody 100 nM
[29] = biological target: human MSLN-hFc protein (Acro, Cat. No. MSN-H5253) (human) (UniProt Q13421); experiment: ELISA, coated human MSLN-hFc, antibody 0.1 nM; remark: listed apart in the source
[30] = biological target: human MSLN-hFc protein (Acro, Cat. No. MSN-H5253) (human) (UniProt Q13421); experiment: ELISA, coated human MSLN-hFc, antibody 100 nM; remark: listed apart in the source
[31] = biological target: human MSLN-hFc protein (Acro, Cat. No. MSN-H5253) (human) (UniProt Q13421); experiment: ELISA, coated human MSLN-hFc, antibody 0.01 nM
[32] = biological target: human MSLN-hFc protein (Acro, Cat. No. MSN-H5253) (human) (UniProt Q13421); experiment: ELISA, coated human MSLN-hFc, antibody 0.01 nM; remark: listed apart in the source
[33] = biological target: human MSLN-hFc protein (Acro, Cat. No. MSN-H5253) (human) (UniProt Q13421); experiment: ELISA, coated human MSLN-hFc, antibody 0.001 nM
[34] = biological target: human MSLN-hFc protein (Acro, Cat. No. MSN-H5253) (human) (UniProt Q13421); experiment: ELISA, coated human MSLN-hFc, antibody 0.001 nM; remark: listed apart in the source
[35] = biological target: human MSLN-hFc protein (Acro, Cat. No. MSN-H5253) (human) (UniProt Q13421); experiment: ELISA, coated human MSLN-hFc, antibody 0.0001 nM
[36] = biological target: monkey MSLN full-length protein expressed on HEK293T cells (HEK293T-monkey MSLN) (monkey); experiment: FACS on HEK293T-monkey MSLN cells
[37] = biological target: monkey MSLN full-length protein (NCBI: XP_028696439.1) on HEK293T cells (monkey); experiment: FACS on HEK293T-monkey MSLN cells; antibody […]
[38] = biological target: monkey MSLN full-length protein (NCBI: XP_028696439.1) on HEK293T cells (monkey); experiment: FACS on HEK293T-monkey MSLN cells; antibody 4 nM
[39] = biological target: monkey MSLN full-length protein (NCBI: XP_028696439.1) on HEK293T cells (monkey); experiment: FACS on HEK293T-monkey MSLN cells; antibody 20 nM
[40] = biological target: monkey MSLN full-length protein (NCBI: XP_028696439.1) on HEK293T cells (monkey); experiment: FACS on HEK293T-monkey MSLN cells; antibody 0.8 nM
[41] = biological target: monkey MSLN full-length protein (NCBI: XP_028696439.1) on HEK293T cells (monkey); experiment: FACS on HEK293T-monkey MSLN cells; antibody 100 nM
[42] = biological target: monkey MSLN full-length protein (NCBI: XP_028696439.1) on HEK293T cells (monkey); experiment: FACS on HEK293T-monkey MSLN cells; antibody 0.032 nM
[43] = biological target: monkey MSLN full-length protein (NCBI: XP_028696439.1) on HEK293T cells (monkey); experiment: FACS on HEK293T-monkey MSLN cells; antibody 0.0064 nM
[44] = biological target: monkey MSLN full-length protein (NCBI: XP_028696439.1) on HEK293T cells (monkey); experiment: FACS on HEK293T-monkey MSLN cells; antibody 0.00128 nM
[45] = biological target: human MSLN-FL-his protein (human) (UniProt Q13421); experiment: ELISA, antibody 100 nM
human MSLN-FL-his protein (human), sequence (Q13421 other isoform, or with tags, fused parts or gaps): as the sequence (Q13421 other isoform, or with tags, fused parts or gaps limits assumed) above, with R14P counted along it

human MSLN on OVCAR3 tumor cells (human), sequence (Q13421 other isoform, or with tags, fused parts or gaps): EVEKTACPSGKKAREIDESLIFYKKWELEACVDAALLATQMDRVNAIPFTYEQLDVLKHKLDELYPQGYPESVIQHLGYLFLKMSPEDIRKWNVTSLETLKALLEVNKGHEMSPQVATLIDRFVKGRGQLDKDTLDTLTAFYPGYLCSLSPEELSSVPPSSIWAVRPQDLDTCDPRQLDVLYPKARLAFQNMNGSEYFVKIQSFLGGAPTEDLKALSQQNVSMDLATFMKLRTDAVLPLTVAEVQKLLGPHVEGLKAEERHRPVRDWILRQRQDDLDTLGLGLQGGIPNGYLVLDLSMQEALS

For Tab084 (NC) (scFv), the Maximum MFI [1] was 336 MFI, the Maximum MFI [2] was 209 MFI and the Maximum MFI [3] was 469 MFI. It also gave a Maximum MFI [4] of 454 MFI, a Maximum MFI [5] of 439 MFI and a Maximum MFI [6] of 92 MFI. The Maximum MFI [7] was 304 MFI, the Maximum MFI [8] was 156 MFI and the Maximum MFI [9] was 279 MFI. For the same substance, the Maximum MFI [10] was 104 MFI, the Maximum MFI [11] was 231 MFI and the Maximum MFI [12] was 172 MFI. The OD450 [13] was 0.06 OD450, the OD450 [14] was 0.07 OD450 and the OD450 [15] was 0.07 OD450. For the same substance, the OD450 [16] was 0.13 OD450, the OD450 [17] was 0.07 OD450 and the OD450 [18] was 0.06 OD450. It also gave an OD450 [19] of 0.07 OD450, an OD450 [20] of 0.11 OD450 and an OD450 [21] of 0.07 OD450. The OD450 [22] was 0.06 OD450.

With “Tab084 (NC), m971 VH-(G4S)3-VL-his (scFv)” the OD450 nm [23] was 0.05, the OD450 nm [24] was 0.06 and the OD450 nm [25] was 0.05. It also gave an OD450 nm [26] of 0.07, an OD450 nm [27] of 0.05 and an OD450 nm [28] of 0.05. For the same substance, the OD450 nm [29] was 0.07, the OD450 nm [30] was 0.07 and the OD450 nm [31] was 0.05. It also gave an OD450 nm [32] of 0.06, an OD450 nm [33] of 0.05 and an OD450 nm [34] of 0.06. It also gave an OD450 nm [35] of 0.05.

Work on Tab106 (YP218, hIgG1) (antibody) yielded an EC50 [36] of less than 0.5 nM, a Maximum mean fluorescence intensity [36] of 12400 and an FACS fluorescence intensity [37] of 313. For the same substance, the FACS fluorescence intensity [38] was 2440, the FACS fluorescence intensity [39] was 2660 and the FACS fluorescence intensity [40] was 860. The FACS fluorescence intensity [41] was 3290, the FACS fluorescence intensity [42] was 142 and the FACS fluorescence intensity [43] was 100. It also gave an FACS fluorescence intensity [44] of 90.

“Tab131 (m912, scFv-hIgG1 Fc) (Fc fusion)” was tested, and the OD450 nm [45] was 0.16, the FACS fluorescence intensity [37] was 83 and the FACS fluorescence intensity [38] was 86. For the same substance, the FACS fluorescence intensity [39] was 85, the FACS fluorescence intensity [40] was 87 and the FACS fluorescence intensity [41] was 87. It also gave an FACS fluorescence intensity [42] of 106, an FACS fluorescence intensity [43] of 85 and an FACS fluorescence intensity [44] of 93.
